The source of these data is publication PMC8214733.

Common to all, as to assay: BRET assay (LuTHy system)
Assay [1] has as its target sperm associated antigen 6 (SPAG6), full CDS fused to a proteinA-mCitrine tag (UniProt O75602). The conditions noted are these: parent: est. 0.41; read off a plot.
Assay [2] concerns the target C-terminal portion of DYNC1H1 (1000 AA) fused to a proteinA-mCitrine tag (UniProt Q14204). As to conditions: parent: est. 0.52; read off a plot.
In assay [3] the target is T1, sperm associated antigen 6 (SPAG6), full CDS fused to a proteinA-mCitrine tag, O75602.
T1 chain: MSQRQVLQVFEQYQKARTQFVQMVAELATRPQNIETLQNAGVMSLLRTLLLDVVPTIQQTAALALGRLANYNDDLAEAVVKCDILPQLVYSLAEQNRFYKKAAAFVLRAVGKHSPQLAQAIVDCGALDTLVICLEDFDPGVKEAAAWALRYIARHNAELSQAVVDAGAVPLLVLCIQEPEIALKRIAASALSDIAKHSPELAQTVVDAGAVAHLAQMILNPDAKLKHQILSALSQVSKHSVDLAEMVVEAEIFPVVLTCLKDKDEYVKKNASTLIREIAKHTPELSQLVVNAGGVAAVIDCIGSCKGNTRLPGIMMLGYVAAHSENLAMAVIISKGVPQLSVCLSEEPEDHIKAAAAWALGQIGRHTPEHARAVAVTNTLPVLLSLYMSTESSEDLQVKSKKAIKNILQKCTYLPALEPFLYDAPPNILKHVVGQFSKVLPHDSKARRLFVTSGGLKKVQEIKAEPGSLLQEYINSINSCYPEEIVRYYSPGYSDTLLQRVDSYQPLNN
As to conditions: chain shown with the change;; parent: est. 0.41; read off a plot.

For assay [4], the target named is C-terminal portion of DYNC1H1 (1000 AA) fused to a proteinA-mCitrine tag, Q14204. The conditions noted are these: chain shown with the change;; parent: est. 0.52; read off a plot.
Sequence of C-terminal portion of DYNC1H1 (1000 AA) fused to a proteinA-mCitrine tag, Q14204 (Q14204 whole entry, the tested form may be a part): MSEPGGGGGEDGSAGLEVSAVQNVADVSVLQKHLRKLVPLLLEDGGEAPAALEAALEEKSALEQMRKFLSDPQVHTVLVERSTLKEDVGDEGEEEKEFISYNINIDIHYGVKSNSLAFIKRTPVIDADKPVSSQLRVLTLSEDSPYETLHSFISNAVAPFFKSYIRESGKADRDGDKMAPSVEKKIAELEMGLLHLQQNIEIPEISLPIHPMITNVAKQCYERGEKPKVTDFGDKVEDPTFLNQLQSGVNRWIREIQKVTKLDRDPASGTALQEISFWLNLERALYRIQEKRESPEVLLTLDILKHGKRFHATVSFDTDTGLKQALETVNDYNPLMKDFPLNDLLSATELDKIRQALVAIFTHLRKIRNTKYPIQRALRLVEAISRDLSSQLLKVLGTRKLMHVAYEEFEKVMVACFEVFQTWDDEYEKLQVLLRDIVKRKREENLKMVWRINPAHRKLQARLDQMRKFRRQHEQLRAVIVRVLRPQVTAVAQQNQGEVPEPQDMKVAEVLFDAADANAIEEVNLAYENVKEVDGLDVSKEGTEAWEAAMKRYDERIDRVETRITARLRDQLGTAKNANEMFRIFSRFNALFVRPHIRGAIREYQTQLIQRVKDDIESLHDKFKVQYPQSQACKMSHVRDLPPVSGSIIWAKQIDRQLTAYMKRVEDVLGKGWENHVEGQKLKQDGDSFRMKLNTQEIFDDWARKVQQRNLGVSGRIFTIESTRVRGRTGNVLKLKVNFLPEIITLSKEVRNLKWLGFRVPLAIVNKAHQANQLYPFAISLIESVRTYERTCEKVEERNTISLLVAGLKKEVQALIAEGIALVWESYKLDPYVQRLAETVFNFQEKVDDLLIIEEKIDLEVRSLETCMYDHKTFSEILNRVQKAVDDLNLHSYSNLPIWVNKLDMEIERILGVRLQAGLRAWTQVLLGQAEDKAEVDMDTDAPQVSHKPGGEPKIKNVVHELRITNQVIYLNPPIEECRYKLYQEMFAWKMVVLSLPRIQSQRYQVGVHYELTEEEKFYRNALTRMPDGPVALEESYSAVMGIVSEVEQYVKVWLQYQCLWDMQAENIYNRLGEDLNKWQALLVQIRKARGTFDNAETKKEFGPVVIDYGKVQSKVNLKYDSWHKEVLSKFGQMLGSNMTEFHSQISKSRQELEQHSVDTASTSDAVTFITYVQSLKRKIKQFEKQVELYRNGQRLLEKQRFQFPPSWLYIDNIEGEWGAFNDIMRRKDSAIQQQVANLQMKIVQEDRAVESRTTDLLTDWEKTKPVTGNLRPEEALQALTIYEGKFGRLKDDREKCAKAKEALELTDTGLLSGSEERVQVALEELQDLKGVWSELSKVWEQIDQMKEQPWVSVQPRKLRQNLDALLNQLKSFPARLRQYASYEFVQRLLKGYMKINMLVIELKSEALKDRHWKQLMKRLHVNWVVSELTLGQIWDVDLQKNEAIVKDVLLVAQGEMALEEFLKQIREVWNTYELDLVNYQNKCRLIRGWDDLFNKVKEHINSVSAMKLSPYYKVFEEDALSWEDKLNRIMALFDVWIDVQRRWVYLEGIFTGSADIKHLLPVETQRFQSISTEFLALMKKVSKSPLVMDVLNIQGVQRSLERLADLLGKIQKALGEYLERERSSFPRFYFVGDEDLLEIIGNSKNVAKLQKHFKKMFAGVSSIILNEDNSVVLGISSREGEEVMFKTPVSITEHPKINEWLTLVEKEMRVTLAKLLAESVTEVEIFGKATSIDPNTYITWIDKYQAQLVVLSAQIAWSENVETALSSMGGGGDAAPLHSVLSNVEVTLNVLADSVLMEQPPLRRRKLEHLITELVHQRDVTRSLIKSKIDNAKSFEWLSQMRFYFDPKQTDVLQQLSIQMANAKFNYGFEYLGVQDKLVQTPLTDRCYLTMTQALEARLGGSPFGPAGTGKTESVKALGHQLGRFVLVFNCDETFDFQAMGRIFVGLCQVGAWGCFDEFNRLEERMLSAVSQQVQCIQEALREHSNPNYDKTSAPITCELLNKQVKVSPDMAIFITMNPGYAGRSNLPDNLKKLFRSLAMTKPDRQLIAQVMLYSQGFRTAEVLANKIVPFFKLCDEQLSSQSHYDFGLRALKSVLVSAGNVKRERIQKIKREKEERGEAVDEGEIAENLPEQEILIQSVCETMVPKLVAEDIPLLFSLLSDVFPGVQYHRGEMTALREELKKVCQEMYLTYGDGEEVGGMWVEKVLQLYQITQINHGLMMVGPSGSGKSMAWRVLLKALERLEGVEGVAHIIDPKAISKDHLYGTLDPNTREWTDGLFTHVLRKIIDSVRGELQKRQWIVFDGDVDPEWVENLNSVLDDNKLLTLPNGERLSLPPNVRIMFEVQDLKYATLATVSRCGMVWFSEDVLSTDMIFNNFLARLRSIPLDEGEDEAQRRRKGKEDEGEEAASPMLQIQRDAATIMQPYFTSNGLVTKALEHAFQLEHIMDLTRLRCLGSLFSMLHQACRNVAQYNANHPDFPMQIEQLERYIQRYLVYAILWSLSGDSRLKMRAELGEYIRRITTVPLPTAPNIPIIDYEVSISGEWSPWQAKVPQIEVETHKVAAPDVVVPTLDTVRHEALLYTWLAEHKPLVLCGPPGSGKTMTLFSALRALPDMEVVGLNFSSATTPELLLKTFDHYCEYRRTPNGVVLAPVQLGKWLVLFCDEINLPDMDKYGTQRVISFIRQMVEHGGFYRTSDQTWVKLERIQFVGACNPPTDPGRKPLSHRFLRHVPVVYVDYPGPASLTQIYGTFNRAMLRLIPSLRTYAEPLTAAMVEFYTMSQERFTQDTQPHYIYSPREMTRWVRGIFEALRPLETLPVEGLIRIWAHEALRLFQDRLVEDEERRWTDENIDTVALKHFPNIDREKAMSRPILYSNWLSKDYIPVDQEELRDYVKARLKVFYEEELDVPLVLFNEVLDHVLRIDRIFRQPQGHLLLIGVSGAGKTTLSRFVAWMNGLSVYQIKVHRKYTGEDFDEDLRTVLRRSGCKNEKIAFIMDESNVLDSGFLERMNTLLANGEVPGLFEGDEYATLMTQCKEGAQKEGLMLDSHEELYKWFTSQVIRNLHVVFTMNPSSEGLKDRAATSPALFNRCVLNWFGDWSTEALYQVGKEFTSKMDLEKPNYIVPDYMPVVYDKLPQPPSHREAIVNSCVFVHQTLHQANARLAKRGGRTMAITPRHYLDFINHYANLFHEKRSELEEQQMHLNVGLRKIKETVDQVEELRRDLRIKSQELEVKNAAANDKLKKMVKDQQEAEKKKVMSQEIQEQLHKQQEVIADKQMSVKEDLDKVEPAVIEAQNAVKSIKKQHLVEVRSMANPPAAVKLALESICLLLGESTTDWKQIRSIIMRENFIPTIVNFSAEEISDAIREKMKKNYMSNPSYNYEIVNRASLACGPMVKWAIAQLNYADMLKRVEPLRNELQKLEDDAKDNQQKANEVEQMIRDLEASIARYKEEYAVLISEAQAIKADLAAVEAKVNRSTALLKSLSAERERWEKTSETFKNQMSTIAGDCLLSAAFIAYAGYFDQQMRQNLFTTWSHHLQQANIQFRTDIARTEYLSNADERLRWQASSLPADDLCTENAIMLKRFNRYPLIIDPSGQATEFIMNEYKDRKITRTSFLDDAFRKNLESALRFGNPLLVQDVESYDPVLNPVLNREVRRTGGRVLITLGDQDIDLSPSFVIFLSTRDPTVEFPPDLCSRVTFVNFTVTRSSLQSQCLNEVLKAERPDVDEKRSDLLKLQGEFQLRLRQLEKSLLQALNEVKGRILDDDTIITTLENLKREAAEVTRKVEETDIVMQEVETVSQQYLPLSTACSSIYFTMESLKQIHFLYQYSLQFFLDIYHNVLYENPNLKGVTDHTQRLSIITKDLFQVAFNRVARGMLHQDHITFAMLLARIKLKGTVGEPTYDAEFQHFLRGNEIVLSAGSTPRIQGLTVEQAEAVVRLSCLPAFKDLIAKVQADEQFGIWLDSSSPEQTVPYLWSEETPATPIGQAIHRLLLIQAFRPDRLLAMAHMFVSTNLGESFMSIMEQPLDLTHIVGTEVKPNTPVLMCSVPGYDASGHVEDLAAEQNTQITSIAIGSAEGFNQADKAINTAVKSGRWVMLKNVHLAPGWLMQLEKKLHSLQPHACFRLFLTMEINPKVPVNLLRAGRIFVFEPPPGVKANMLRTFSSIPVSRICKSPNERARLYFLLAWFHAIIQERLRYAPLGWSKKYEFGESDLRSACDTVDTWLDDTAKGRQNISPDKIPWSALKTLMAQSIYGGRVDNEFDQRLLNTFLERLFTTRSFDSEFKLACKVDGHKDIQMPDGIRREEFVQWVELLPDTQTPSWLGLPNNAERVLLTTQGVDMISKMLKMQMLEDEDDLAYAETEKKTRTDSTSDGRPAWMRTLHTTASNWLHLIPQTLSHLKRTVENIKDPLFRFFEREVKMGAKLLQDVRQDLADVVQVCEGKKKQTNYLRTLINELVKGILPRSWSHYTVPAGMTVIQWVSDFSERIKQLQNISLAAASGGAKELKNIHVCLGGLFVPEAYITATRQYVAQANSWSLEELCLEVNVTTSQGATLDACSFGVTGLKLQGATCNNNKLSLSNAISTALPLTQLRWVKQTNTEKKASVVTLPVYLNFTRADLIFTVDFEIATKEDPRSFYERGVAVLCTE

In the case of “coiled-coil domain-containing protein 103 (CCDC103), full-length coding sequence fused to a Nano-luciferase (NL)-Myc tag (from UniProt Q8IW40) p.Ala11Pro”, the response is 0.33 in assay [1] and 0.55 in assay [2].

B1: coiled-coil domain-containing protein 103 (CCDC103), full-length coding sequence fused to a Nano-luciferase (NL)-Myc tag, Q8IW40 p.His154Pro (protein)
chain: MERNDIINFKALEKELQAALTADEKYKRENAAKLRAVEQRVASYEEFRGIVLASHLKPLERKDKMGGKRTVPWNCHTIQGRTFQDVATEISPEKAPLQPETSADFYRDWRRHLPSGPERYQALLQLGGPRLGCLFQTDVGFGLLGELLVALADPVGPADRAAVLGILCSLASTGRFTLNLSLLSRAERESCKGLFQKLQAMGNPRSVKEGLSWEEQGLEEQSGGLQEEERLLQELLELYQVD
With B1, the response in assay [3] stood at 0.22; in assay [4], 0.38.
